# PMC5522267, “Targeting PEPT1: a novel strategy to improve the antitumor efficacy of doxorubicin in human hepatocellular carcinoma therapy” (Oncotarget, 2017)
# Marks after values point to notes of the source that are not given here.
# Tests used:
# PEPT1 = biological target: T1, PEPT1 (Homo sapiens, UniProt P46059); parameters: method as in previous research of the authors (Figure 1); details: Bel-7402, HepG2 and Caco-2 cells; ref previous research of the authors (Figure 1); cited from earlier work
# T1 construct: Doxorubicin-tripeptide conjugate were incubated with HCC cell monolayer at pH 6.0 for 120 min; endogenous in cells; host or cells: Bel-7402, HepG2 (human HCC cells); Caco-2
# T1 sequence (P46059 1-708): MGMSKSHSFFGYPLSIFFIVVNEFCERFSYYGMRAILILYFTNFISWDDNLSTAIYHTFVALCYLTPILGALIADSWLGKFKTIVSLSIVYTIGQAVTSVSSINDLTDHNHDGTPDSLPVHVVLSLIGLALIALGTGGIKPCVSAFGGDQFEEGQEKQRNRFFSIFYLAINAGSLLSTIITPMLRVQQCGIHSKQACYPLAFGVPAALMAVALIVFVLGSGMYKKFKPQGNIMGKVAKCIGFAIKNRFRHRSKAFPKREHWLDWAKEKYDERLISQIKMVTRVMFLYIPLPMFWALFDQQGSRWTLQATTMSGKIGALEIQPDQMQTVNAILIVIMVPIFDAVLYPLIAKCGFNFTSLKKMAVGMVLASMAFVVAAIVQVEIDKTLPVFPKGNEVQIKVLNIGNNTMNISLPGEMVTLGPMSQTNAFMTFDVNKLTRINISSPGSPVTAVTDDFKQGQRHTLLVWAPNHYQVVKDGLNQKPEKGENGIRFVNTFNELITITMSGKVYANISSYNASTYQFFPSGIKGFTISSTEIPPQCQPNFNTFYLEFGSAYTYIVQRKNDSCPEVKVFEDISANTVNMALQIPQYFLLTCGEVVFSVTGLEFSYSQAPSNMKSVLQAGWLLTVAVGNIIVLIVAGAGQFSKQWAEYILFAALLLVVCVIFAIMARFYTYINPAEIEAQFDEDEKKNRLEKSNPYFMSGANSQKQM
# [1] = Blood routine, HepG2 HCC mice; assay type: in vivo, nude mice; details: low dose, after treatment
# [2] = Drug distribution in tissues by Small Animal Imaging, HepG2 HCC mice; assay type: in vivo, nude mice; details: HepG2 HCC mice (low dose group), compared with control group
# From the text: (§5) What's more, the tumor, liver, jejunum and heart tissue of mice were dissected firstly for Small Animal Imaging (KODAK IS in-vivo FX, Kodak), and secondly were placed in the 10% Formaldehyde solution to prepare paraffin section, HE staining for histological examination.
# [3] = Cardiac indexes, Bel-7402 HCC mice; assay type: in vivo, nude mice; details: high dose, after treatment
# [4] = Drug distribution in tissues by Small Animal Imaging, Bel-7402 HCC mice; assay type: in vivo, nude mice; details: Bel-7402 HCC mice (high dose group), compared with Doxorubicin group
# From the text: as §5
# Bel-7402 [5] = assay: Drug concentration in tumor cells by HPLC, Bel-7402; assay type: cell-based, human; details: incubated 2 hours
# Experimental: (§1) When the density of HCC cells reached to 3 × 10^6/ml, they were trypsinized and centrifuge (4°C, 800rpm, 5min), then discarded the supernatant, dropping medium 3 ml and evenly mixed. Cell suspension was divided into three groups (control group, Doxorubicin-tripeptide conjugate group and Doxorubicin group). The drug concentration was 0.01 mg/ml for cultured 2 hours avoiding light. Then the cells obtained by centrifugation were proceeded by the following steps: washed 3 times with 1 ml normal saline, added 0.5 ml ultra pure water (Millipore), broken by ultrasonic wave, drooped in acetonitrile (Tianjin Concord Technology Co. Ltd, China) 0.5 ml, mixed, ultrasonic oscillation for 10 mins, centrifuge (1200 rpm, 15 min), take the supernatant, filtration with filter membrane, take 20 μl for HPLC analysis (Agilent 1100 HPLC system, USA).
# (§2) Chromatographic conditions were as follows: chromatographic column: DIONEX Acclaim 120 C18 (2.1 × 250 mm, 5 μm 120A), Mobile phase: Acetonitrile-0.2%NaH2PO4 aqueous solution (35: 65), Velocity: 0.35 ml/min, column temperature: 30°C, DAD, 254 nm, sample size: 20 μl. […] According to the chromatographic condition, the retention time (tR), peak position time, chromatographic behavior, resolution (R), the minimum detectable concentration and the intracellular drug concentration of these two drugs were detected in turn.
# Caco2 [6] = assay: cells; assay type: cell-based, human; details: Caco2, MTT
# Experimental: (§3) Cells in the growth log phase were seeded in 96-well plate (200 ul/well) with density 8×10^3/well for 24 hours, then the drugs were added. The concentration of Doxorubicin-tripeptide conjugate was 0.005 mg/ml, 0.01 mg/ml, 0.02 mg/ml, 0.04 mg/ml, 0.06 mg/ml in turn, while Doxorubicin followed by 0.005 mg/ml, 0.01 mg/ml, 0.02 mg/ml, 0.04 mg/ml, 0.06 mg/ml with a same dosing volume 100 μl. Each concentration group included five equal wells and was provided with a control well of medium alone as a negative control. Add 20 μl of MTT Reagent ( 5 mg/ml, Sigma) to each well, including controls and continue to be incubated at 37°C for 4 hours. Remove the supernatant, drop plus DMSO (200 μl/well) and measure the OD value in each well, including the blanks, at 490 nm by a Multi-Mode Reader (BioTek, Synergy 2, USA). To calculate the inhibitory rate and the half maximal inhibitory concentration (IC50) according to the formula: Inhibitory rate =(1-( the dosing group OD/the control group OD )) × 100%, IC50 = lg^-1 (Xm-i (ΣP-0.5)) (Xm: the logarithm of maximum concentration, I: the logarithm of maximum dose/ adjacent dose, P: the sum of each group inhibitory rate, Pm: the maximum inhibitory rate, Pn: the minimum inhibitory rate ).
# HepG2 [7] = assay: cells; assay type: cell-based, human; details: HepG2, MTT
# Experimental: as §3
# Bel-7402 [8] = assay: cells; assay type: cell-based, human; details: Bel-7402, MTT
# Experimental: as §3
# HCC cells = assay: MTT on HCC cells (cell line not given); assay type: cell-based, human
# Experimental: as §3
# Caco2 [9] = assay: Drug concentration in tumor cells by HPLC, Caco2; assay type: cell-based, human; details: incubated 2 hours
# [10] = Blood routine, Bel-7402 HCC mice; assay type: in vivo, nude mice; details: high dose, after treatment
# HepG2 [11] = assay: Drug concentration in tumor cells by HPLC, HepG2; assay type: cell-based, human; details: incubated 2 hours
# Experimental: as §1, §2
# Bel-7402 HCC = tested on: Bel-7402 HCC
# From the text: (§4) An animal model of HCC cells (Bel-7402, HepG2) transplanted into nude mice was established according to the method described in ref. 10.
# HepG2 HCC = tested on: HepG2 HCC
# From the text: as §4
# [12] = Cardiac indexes, HepG2 HCC mice; assay type: in vivo, nude mice; details: low dose, after treatment
smiles,measurement,setting,value
Cc1c(CC(=O)NCCCC[C@H](NC(=O)[C@@H](C)N)C(=O)O)c(=O)oc2cc(N)ccc12 [Ala-Lys-AMCA],inhibition of uptake by PEPT1 substrates,PEPT1,competitive inhibition by three known substrates of PEPT1
same,uptake dependence on time and concentration,PEPT1,time-dependent and concentration-dependent
COc1cccc2c1C(=O)c1c(O)c3c(c(O)c1C2=O)C[C@@](O)(C(=O)CO)C[C@@H]3O[C@H]1C[C@H](NC(=O)CNC(=O)CNC(=O)CN)[C@H](O)[C@H](C)O1 [Doxorubicin-tripeptide conjugate],PLT,[1],135.00 ± 69.55 ×10^9/l
same,RBC,[1],8.03 ± 0.91 ×10^12/l
same,WBC,[1],8.08 ± 3.40 ×10^9/l
same,drug distribution in tissues,[2],mainly distributed in subcutaneous tumor tissue and less in heart tissue
same,change of mice weight during treatment,"HCC mice, both dose groups","weight increase in group B at the early stage of treatment, but a weight decreased significantly at the late stage of treatment"
same,survival quality (general condition),"HCC mice, both dose groups","lethargy, vomiting and loss of appetite administered within 3 days, then gradually restored"
same,damage to heart and bone marrow,"compared with the Doxorubicin group, cardiac indexes, histopathology, blood routine, bone marrow smears, P < 0.05",less damage to the heart and bone marrow
same,AST,[3],720.83 ± 303.52^b U/L
same,CK,[3],1025.17 ± 182.34^b U/L
same,CK-Mb,[3],424.33 ± 189.91^b U/L
same,GSH-PX,[3],700.50 ± 79.58^b U
same,LDH,[3],6517.00 ± 1956.59 U/L
same,MDA,[3],2.78 ± 0.22^b nmol/mg
same,SOD,[3],171.71 ± 15.51 U/mg
same,drug distribution in tissues,[4],mainly distributed in subcutaneous tumor tissue and liver metastatic tumor tissue and less in heart tissue
same,drug concentration in tumor cells,Bel-7402 [5],3080 ± 30 ng/mL
same,IC50,Caco2 [6],52.9 µg/mL
same,IC50,HepG2 [7],51.4 µg/mL
same,IC50,Bel-7402 [8],52.5 µg/mL
same,IC50,HCC cells,50 µg/mL
same,drug concentration in tumor cells,Caco2 [9],3090 ± 30 ng/mL
same,PLT,[10],159.83 ± 74.74^b ×10^9/l
same,RBC,[10],7.50 ± 1.77 ×10^12/l
same,WBC,[10],7.05 ± 2.70^b ×10^9/l
same,drug concentration in tumor cells,HepG2 [11],2940 ± 20 ng/mL
same,deaths during treatment,"Bel-7402 HCC; Bel-7402, high dose group, 5W",1 death during the treatment of 4W+
same,"Mice weight, Before treatment","Bel-7402 HCC; Bel-7402 HCC mice, baseline",23.22 ± 1.57 g
same,"Mice weight, After treatment","Bel-7402 HCC; Bel-7402 HCC mice, high dose: Doxorubicin 60 mg/m^2, conjugate 300 mg/m^2, tail vein, 5 weeks",20.13 ± 1.09^a g
same,deaths during treatment,"HepG2 HCC; HepG2, low dose group, 5W",no death
same,"Mice weight, Before treatment","HepG2 HCC; HepG2 HCC mice, baseline",20.88 ± 5.37 g
same,"Mice weight, After treatment","HepG2 HCC; HepG2 HCC mice, low dose: Doxorubicin 40 mg/m^2, conjugate 200 mg/m^2, tail vein, 5 weeks",19.90 ± 3.71 g
same,AST,[12],637.75 ± 319.83 U/L
same,CK,[12],1070.75 ± 193.32 U/L
same,CK-Mb,[12],570.00 ± 99.07^b U/L
same,GSH-PX,[12],682.33 ± 51.09 U
same,LDH,[12],6116.75 ± 1136.22 U/L
same,MDA,[12],3.16 ± 0.26 nmol/mg
same,SOD,[12],164.15 ± 25.20 U/mg
